Results from PMC7367873, “Dissecting the sequence determinants for dephosphorylation by the catalytic subunits of phosphatases PP1 and PP2A” (Nature Communications, 2020).

Assays:
[1] = tested on: GFP-14-3-3β and its binding proteins; experiment: GFP-14-3-3β co-IP with LC-MS/MS label-free quantification, untreated versus PP1c-treated; design: species or system human
GFP-14-3-3β = GFP-14-3-3β co-IP with LC-MS/MS, untreated GFP-14-3-3β versus GFP control (14-3-3 interactome); assay type: binding, human
[2] = log2 difference, pairwise comparison PP1 vs untreated, label-free quantification, 3 replicates each
[3] = log2 difference, pairwise comparison untreated vs GFP, label-free quantification, 3 replicates each
[4] = PP1 vs untreated, LFQ intensities, replicates 1-3
[5] = untreated vs GFP, LFQ intensities, replicates 1-3

Difference (log2), PP1 vs untreated [1, 2] | Difference (log2), PP1 vs untreated [1, 4] [log2] | Molecule | Difference (log2), untreated vs GFP (GFP-14-3-3β; [3]) | Difference (log2), untreated vs GFP (GFP-14-3-3β; [5]) [log2]
1.626 |  | ATP5A1 (protein, UniProt P25705 44-553, looked up) ATP synthase F(1) complex …: QKTGTAEMSSILEERILGADTSVDLEETGRVLSIGDGIARVHGLRNVQAEEMVEFSSGLKGMSLNLEPDNVGVVVFGNDKLIKEGDIVKRTGAIVDVPVGEELLGRVVDALGNAIDGKGPIGSKTRRRVGLKAPGIIPRISVREPMQTGIKAVDSLVPIGRGQRELIIGDRQTGKTSIAIDTIINQKRFNDGSDEKKKLYCIYVAIGQKRSTVAQLVKRLTDADAMKYTIVVSATASDAAPLQYLAPYSGCSMGEYFRDNGKHALIIYDDLSKQAVAYRQMSLLLRRPPGREAYPGDVFYLHSRLLERAAKMNDAFGGGSLTALPVIETQAGDVSAYIPTNVISITDGQIFLETELFYKGIRPAINVGLSVSRVGSAAQTRAMKQVAGTMKLELAQYREVAAFAQFGSDLDAATQQLLSRGVRLTELLKQGQYSPMAIEEQVAVIYAGVRGYLDKLEPSKITKFENAFLSHVVSQHQALLGTIRADGKISEQSDAKLKEIVTNFLAGFEA | -0.3409 | 
1.627 |  | EIF2A (protein, UniProt Q9BY44 1-585, looked up) Eukaryotic translation …: MAPSTPLLTVRGSEGLYMVNGPPHFTESTVFPRESGKNCKVCIFSKDGTLFAWGNGEKVNIISVTNKGLLHSFDLLKAVCLEFSPKNTVLATWQPYTTSKDGTAGIPNLQLYDVKTGTCLKSFIQKKMQNWCPSWSEDETLCARNVNNEVHFFENNNFNTIANKLHLQKINDFVLSPGPQPYKVAVYVPGSKGAPSFVRLYQYPNFAGPHAALANKSFFKADKVTMLWNKKATAVLVIASTDVDKTGASYYGEQTLHYIATNGESAVVQLPKNGPIYDVVWNSSSTEFCAVYGFMPAKATIFNLKCDPVFDFGTGPRNAAYYSPHGHILVLAGFGNLRGQMEVWDVKNYKLISKPVASDSTYFAWCPDGEHILTATCAPRLRVNNGYKIWHYTGSILHKYDVPSNAELWQVSWQPFLDGIFPAKTITYQAVPSEVPNEEPKVATAYRPPALRNKPITNSKLHEEEPPQNMKPQSGNDKPLSKTALKNQRKHEAKKAAKQEARSDKSPDLAPTPAPQSTPRNTVSQSISGDPEIDKKIKNLKKKLKAIEQLKEQAATGKQLEKNQLEKIQKETALLQELEDLELGI | -1.244 | 
 | -1.071 | SAMD4B (protein, UniProt Q5PRF9 1-694, looked up) Protein Smaug homolog 2: MMFRDQVGILAGWFKGWNECEQTVALLSLLKRVTRTQARFLQLCLEHSLADCNDIHLLESEANSAAIVSQWQQESKEKVVSLLLSHLPLLQPGNTEAKSEYMRLLQKVLAYSIESNAFIEESRQLLSYALIHPATTLEDRNALALWLSHLEERLASGFRSRPEPSYHSRQGSDEWGGPAELGPGEAGPGWQDKPPRENGHVPFHPSSSVPPAINSIGSNANTGLPCQIHPSPLKRSMSLIPTSPQVPGEWPSPEELGARAAFTTPDHAPLSPQSSVASSGSEQTEEQGSSRNTFQEDGSGMKDVPSWLKSLRLHKYAALFSQMSYEEMMTLTEQHLESQNVTKGARHKIALSIQKLRERQSVLKSLEKDVLEGGNLRNALQELQQIIITPIKAYSVLQATVAAATTTPTAKDGAPGEPPLPGAEPPLAHPGTDKGTEAKDPPAVENYPPPPAPAPTDGSEPAPAPVADGDIPSQFTRVMGKVCTQLLVSRPDEENITSYLQLIEKCLTHEAFTETQKKRLLSWKQQVLKLLRTFPRKAALEMQNYRQQKGWAFGSNSLPIAGSVGMGVARRTQRQFPMPPRALPPGRMGLLSPSGIGGVSPRHALTSPSLGGQGRQNLWFANPGGSNSMPSQSRSSVQRTHSLPVHSSPQAILMFPPDCPVPGPDLEINPTLESLCLSMTEHALGDGTDKTSTI |  | 4.238
 | -1.121 | SF3B1 (protein, UniProt O75533 1-1304, looked up) Splicing factor 3B subunit 1: MAKIAKTHEDIEAQIREIQGKKAALDEAQGVGLDSTGYYDQEIYGGSDSRFAGYVTSIAATELEDDDDDYSSSTSLLGQKKPGYHAPVALLNDIPQSTEQYDPFAEHRPPKIADREDEYKKHRRTMIISPERLDPFADGGKTPDPKMNARTYMDVMREQHLTKEEREIRQQLAEKAKAGELKVVNGAAASQPPSKRKRRWDQTADQTPGATPKKLSSWDQAETPGHTPSLRWDETPGRAKGSETPGATPGSKIWDPTPSHTPAGAATPGRGDTPGHATPGHGGATSSARKNRWDETPKTERDTPGHGSGWAETPRTDRGGDSIGETPTPGASKRKSRWDETPASQMGGSTPVLTPGKTPIGTPAMNMATPTPGHIMSMTPEQLQAWRWEREIDERNRPLSDEELDAMFPEGYKVLPPPAGYVPIRTPARKLTATPTPLGGMTGFHMQTEDRTMKSVNDQPSGNLPFLKPDDIQYFDKLLVDVDESTLSPEEQKERKIMKLLLKIKNGTPPMRKAALRQITDKAREFGAGPLFNQILPLLMSPTLEDQERHLLVKVIDRILYKLDDLVRPYVHKILVVIEPLLIDEDYYARVEGREIISNLAKAAGLATMISTMRPDIDNMDEYVRNTTARAFAVVASALGIPSLLPFLKAVCKSKKSWQARHTGIKIVQQIAILMGCAILPHLRSLVEIIEHGLVDEQQKVRTISALAIAALAEAATPYGIESFDSVLKPLWKGIRQHRGKGLAAFLKAIGYLIPLMDAEYANYYTREVMLILIREFQSPDEEMKKIVLKVVKQCCGTDGVEANYIKTEILPPFFKHFWQHRMALDRRNYRQLVDTTVELANKVGAAEIISRIVDDLKDEAEQYRKMVMETIEKIMGNLGAADIDHKLEEQLIDGILYAFQEQTTEDSVMLNGFGTVVNALGKRVKPYLPQICGTVLWRLNNKSAKVRQQAADLISRTAVVMKTCQEEKLMGHLGVVLYEYLGEEYPEVLGSILGALKAIVNVIGMHKMTPPIKDLLPRLTPILKNRHEKVQENCIDLVGRIADRGAEYVSAREWMRICFELLELLKAHKKAIRRATVNTFGYIAKAIGPHDVLATLLNNLKVQERQNRVCTTVAIAIVAETCSPFTVLPALMNEYRVPELNVQNGVLKSLSFLFEYIGEMGKDYIYAVTPLLEDALMDRDLVHRQTASAVVQHMSLGVYGFGCEDSLNHLLNYVWPNVFETSPHVIQAVMGALEGLRVAIGPCRMLQYCLQGLFHPARKVRDVYWKIYNSIYIGSQDALIAHYPRIYNDDKNTYIRYELDYIL |  | 2.403
 | -1.028 | ZC3H18 (protein, UniProt Q86VM9 1-953, looked up) Zinc finger CCCH …: MDVAESPERDPHSPEDEEQPQGLSDDDILRDSGSDQDLDGAGVRASDLEDEESAARGPSQEEEDNHSDEEDRASEPKSQDQDSEVNELSRGPTSSPCEEEGDEGEEDRTSDLRDEASSVTRELDEHELDYDEEVPEEPAPAVQEDEAEKAGAEDDEEKGEGTPREEGKAGVQSVGEKESLEAAKEKKKEDDDGEIDDGEIDDDDLEEGEVKDPSDRKVRPRPTCRFFMKGNCTWGMNCRFIHPGVNDKGNYSLITKADPFPPNGAPPLGPHPLMPANPWGGPVVDEILPPPPPEPPTESAWERGLRHAKEVLKKATIRKEQEPDFEEKRFTVTIGEDEREFDKENEVFRDWNSRIPRDVRDTVLEPYADPYYDYEIERFWRGGQYENFRVQYTETEPYHNYRERERERERENRQRERERERERDRERERRQRERERERERERDKERQRRKEEWERERAKRDEKDRQHRDRDREKEREKEKGKPKPRSPQPPSRQAEPPKKEAATTGPQVKRADEWKDPWRRSKSPKKKLGVSVSPSRARRRRKTSASSASASNSSRSSSRSSSYSGSGSSRSRSRSSSYSSYSSRSSRHSSFSGSRSRSRSFSSSPSPSPTPSPHRPSIRTKGEPAPPPGKAGEKSVKKPAPPPAPPQATKTTAPVPEPTKPGDPREARRKERPARTPPRRRTLSGSGSGSGSSYSGSSSRSRSLSVSSVSSVSSATSSSSSAHSVDSEDMYADLASPVSSASSRSPAPAQTRKEKGKSKKEDGVKEEKRKRDSSTQPPKSAKPPAGGKSSQQPSTPQQAPPGQPQQGTFVAHKEIKLTLLNKAADKGSRKRYEPSDKDRQSPPPAKRPNTSPDRGSRDRKSGGRLGSPKPERQRGQNSKAPAAPADRKRQLSPQSKSSSKVTSVPGKASDPGAASTKSGKASTLSRREELLKQLKAVEDAIARKRAKIPGKA |  | 1.571
 | -1.1218 | EWSR1 (protein, UniProt Q01844 1-656, looked up) RNA-binding protein EWS: MASTDYSTYSQAAAQQGYSAYTAQPTQGYAQTTQAYGQQSYGTYGQPTDVSYTQAQTTATYGQTAYATSYGQPPTGYTTPTAPQAYSQPVQGYGTGAYDTTTATVTTTQASYAAQSAYGTQPAYPAYGQQPAATAPTRPQDGNKPTETSQPQSSTGGYNQPSLGYGQSNYSYPQVPGSYPMQPVTAPPSYPPTSYSSTQPTSYDQSSYSQQNTYGQPSSYGQQSSYGQQSSYGQQPPTSYPPQTGSYSQAPSQYSQQSSSYGQQSSFRQDHPSSMGVYGQESGGFSGPGENRSMSGPDNRGRGRGGFDRGGMSRGGRGGGRGGMGSAGERGGFNKPGGPMDEGPDLDLGPPVDPDEDSDNSAIYVQGLNDSVTLDDLADFFKQCGVVKMNKRTGQPMIHIYLDKETGKPKGDATVSYEDPPTAKAAVEWFDGKDFQGSKLKVSLARKKPPMNSMRGGLPPREGRGMPPPLRGGPGGPGGPGGPMGRMGGRGGDRGGFPPRGPRGSRGNPSGGGNVQHRAGDWQCPNPGCGNQNFAWRTECNQCKAPKPEGFLPPPFPPPGGDRGRGGPGGMRGGRGGLMDRGGPGGMFRGGRGGDRGGFRGGRGMDRGGFGGGRRGGPGGPPGPLMEQMGGRRGGRGGPGKMDKGEHRQERRDRPY |  | 2.021
 | -1.031 | CORO1B (protein, UniProt Q9BR76 1-489, looked up) Coronin-1B: MSFRKVVRQSKFRHVFGQPVKNDQCYEDIRVSRVTWDSTFCAVNPKFLAVIVEASGGGAFLVLPLSKTGRIDKAYPTVCGHTGPVLDIDWCPHNDEVIASGSEDCTVMVWQIPENGLTSPLTEPVVVLEGHTKRVGIIAWHPTARNVLLSAGCDNVVLIWNVGTAEELYRLDSLHPDLIYNVSWNHNGSLFCSACKDKSVRIIDPRRGTLVAEREKAHEGARPMRAIFLADGKVFTTGFSRMSERQLALWDPENLEEPMALQELDSSNGALLPFYDPDTSVVYVCGKGDSSIRYFEITEEPPYIHFLNTFTSKEPQRGMGSMPKRGLEVSKCEIARFYKLHERKCEPIVMTVPRKSDLFQDDLYPDTAGPEAALEAEEWVSGRDADPILISLREAYVPSKQRDLKISRRNVLSDSRPAMAPGSSHLGAPASTTTAADATPSGSLARAGEAGKLEEVMQELRALRALVKEQGDRICRLEEQLGRMENGDA |  | 0.1576
